# Assay results taken from PMC5095700.
# B1: Glucosamine/glucosaminide N-acetyltransferase (GlmA) (Clostridium acetobutylicum ATCC 824) (protein)
# chain: MEIKETYDFSSIVDLWNKNIGTVYPMNLELFKQNYINDRQRKKIMGAFNGEILIGFVIYKQWTYKSGSLKPNHKIGYINSIIVDINFRHQGIGTKLLDAAEEELINSGVKILRCGSDTYHFFPGIPLECLPSEEFFLVRGYKMQDYFYDLIGDVSKVDFKKPSIKDGFKVNVMKPEDRKGLFEFLEKSFSGRWLEEFIEFFQVGMKERDIVLIKYKTSVIGFSHIYDNKSSFIGPPIYWKALLGHNYGGLGPIGIDKTYRKQGLGRLLLYESLQILKKREVKKMVIDWTEKDIINFYGRFNFMPWKAYRKATKEVKDGKG
# Substrate: N[C@@H]1[C@@H](O)[C@H](O)[C@@H](CO)O[C@H]1O
# Test: purified protein
# Format: biochemical, Clostridium acetobutylicum
# Details: CoA C-terminal domain active site, Trp […], Glu […], Asp […]
protein,measurement,value
B1,Km,210 ± 20 µM
